The target of the test is human melanocortin receptor type 1 (MC1r) (human) (UniProt Q01726). Nature of the test: cell-based or functional assay.
Chain of human melanocortin receptor type 1 (MC1r) (human) (Q01726 whole entry): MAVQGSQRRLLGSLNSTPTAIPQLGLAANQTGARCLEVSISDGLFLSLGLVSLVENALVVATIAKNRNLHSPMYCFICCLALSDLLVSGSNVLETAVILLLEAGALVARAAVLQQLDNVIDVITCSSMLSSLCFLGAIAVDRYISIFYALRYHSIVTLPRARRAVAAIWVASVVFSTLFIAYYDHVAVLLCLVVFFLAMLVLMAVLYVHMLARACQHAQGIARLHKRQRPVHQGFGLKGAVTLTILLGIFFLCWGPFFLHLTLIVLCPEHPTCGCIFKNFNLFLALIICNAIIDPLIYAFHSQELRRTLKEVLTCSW

Take Ac-KKKKKKSYSMEHFRWGKPV-NH2: the EC50, cAMP production is 2.12 nM; the Emax (max efficacy expressed as percent of αMSH), cAMP production is 72 % of αMSH; the maximal efficacy (Emax), cAMP production turned out to be 3 nM.

B1: Ac(Lys)6-NDP-αMSH (Ac(Lys)6-Ser-Tyr-Ser-Nle Glu-His-(D-Phe)-Arg-Trp-Gly-Lys-Pro-Val-NH2) (peptide)
peptide: KKKKKKSYSXEHFRWGKPV
modifications: N-terminal acetyl; Nle (norleucine) at position 10 (written X); D-Phe at position 13; C-terminal amide
In the case of B1, the EC50, cAMP production was 1.35 nM and the Emax (max efficacy expressed as percent of αMSH), cAMP production is 62 % of αMSH.

Values taken from patent US20150297672A1, “Alpha- and gamma-MSH analogues” (TXP Pharma GmbH, priority 2014, published 2015).
